Test results reported in the supplement of paper PMC9170038.

Tested on: MS2 coat protein
Assay: apparent KD of MS2 coat protein; designed switch direction (-1 OFF switch, 1 ON switch): -1; higher = weaker reporter binding
How it was run: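 RNA switches sharing common flanks were transcribed by stalled E. coli RNA polymerase on Illumina chips. A doubling series of SNAP-549-labelled MS2 coat protein, from 0.7 or 1.5 nM to 3 µM, was applied in Tris-HCl pH 7.5 buffer with KCl, MgCl2, BSA, DTT, tRNA and Tween-20. Each step lasted 0.8–1.5 h at the bottom of the series and 10–20 min at the top. Normalised cluster fluorescence was curve-fitted, giving apparent KD as the per-design median over clusters.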

[1] = Eterna round: R95, input ligand: microRNA oligo, concentration not stated
[2] = input ligand: microRNA oligo, concentration not stated
[3] = Eterna round: R95, input ligand: FMN 200 uM
[4] = Eterna round: R95, input ligand: none

Row | Sequence | apparent KD of MS2 coat protein (input ligand: FMN 200 uM) [nM] | apparent KD of MS2 coat protein (input ligand: none) [nM] | apparent KD of MS2 coat protein [1] [nM] | apparent KD of MS2 coat protein [2] [nM] | apparent KD of MS2 coat protein [3] [nM] | apparent KD of MS2 coat protein [4] [nM]
1 | AAUACAAGCUAUUGAUCCCACAUGAGGAUCACCCAUGUAUAUGGCGGUGACACCUCCAUGACGAUAGCUCGUCUUAU [Sensor-V1 #58] (Eterna round: R97, puzzle: Sensor, turn-off variant 1) | 567 | 1360 | – | – | – | –
2 | AGCAUGCUAGGAUAUACGAAACAUUAGGGUUCUUUGUAUAAACAUGAGGAUCACCCAUGUAGAAGGAGCGUGCA [Mat - Exclusion 2 - Mod of Hyphema - D97] (puzzle: Exclusion 2) | – | – | 40.9 | – | – | –
3 | CGAUGCUCGAGUCGACAUGAGGAUCACCCAUGUAGAGUUAGUGAGGAUAUCGGAGACACAUAGUAUGAGAAGGCGCGAACCUGA [Ex NG3 #17] (Eterna round: R96, puzzle: Exclusion NG 3) | 21.8 | 18.8 | – | 16.3 | – | –
4 | CAGAAACAUGAGGAUCACCCAUGUGAGGAUAUGAAAAAGAAAAGAAAAGAAAGAAGAAUCAGAAGGCACAAAGU [salish99-ex1_r3_086] (puzzle: Exclusion 1) | – | – | 32.4 | – | 36.8 | 35.7
5 | GCUGGUCGAGGAUAUACAAUCGUGCUUCGGCACGUAAGAUCACAUGAGGAUCACCCAUGUAGAAGGUGACCAGC [E2/1-B3] (Eterna round: R97, puzzle: Exclusion 2) | 118 | 25.1 | – | – | – | –
6 | AAGAAACAUGAGGAUCACCCAUGUGAGGAUAUGACAAAGAAAAGAAAAGAAAGAAGAUUCAGAAGGCACAAAGG [salish99-ex1_r3_036] (puzzle: Exclusion 1) | – | – | 53.6 | – | 90.5 | 70.4
7 | ACAUGUGUUGUAGGAUAUAGGACACAUGAGGAUCACCCAUGUGGAUUCAUGUCUAAGGAAGCGUCCUAGAAGGACGACAACAUG [Ex NG2 #26] (Eterna round: R96, puzzle: Exclusion NG 2) | 29.1 | 20 | – | 16.3 | – | –
8 | AUCGUACUAGGAUAUUCGGAAACGGACAUGAGGAUCACCCAUGUGAAUAUCCGCAGUCCAGAAGAAGGAGUGAACG [EX5 C.27] (Eterna round: R97, puzzle: Exclusion 5) | 33.5 | 17.9 | – | – | – | –
9 | UCGGCGCGAGGAUAUACGUUUGCUUUUUAGGGUCGUGGCGUACAUGAGGAUCACCCAUGUAGAAGGCGCGCCGC [Apr-15 SS2-29] (puzzle: Exclusion 2) | – | – | 14.6 | – | – | –
10 | GGCCGGGCAGGAUAUGCGUGGGUCCUCAUGAGGACCCACGUACAUGAGGAUCACCCAUGUAGAAGGGCCCGGCC (Eterna round: R97, puzzle: Exclusion 2) | 17.6 | 14.2 | – | – | – | –
11 | AUUUAGCAAGUUAGAUCCUACAUGAGGAUCACCCAUGUUGUUCGUCUCAUUUGAAGACAACACAAAAGUGUUGUCUU [Omei Mir OFFv1 B4] (Eterna round: R97, puzzle: Sensor, turn-off variant 1) | 112 | 126 | – | – | – | –
12 | GUAUAACAUGUAGGAUAUGCAUGGCGAAGCUAUGCAGAAGGACAUGAGGAUCACCCAUGUAAUAGCGUCUGCGUACAGAUGCAA [Mat - Exclusion NG 1 - Mod of JL - D91] (Eterna round: R96, puzzle: Exclusion NG 1) | 186 | 38.7 | – | 29.4 | – | –
13 | GAGUAGUAAGGAUAUAGUAGGAGGGAGAAGAGAGGAGAGAACUAGAAGGUACAUGAGGAUCACCCAUGUUGAGA [JR_Exclu4_Sub083] (puzzle: Exclusion 4) | – | – | 17 | – | 18.5 | 20.4
14 | AAUAGUUGAGUAGGAUAUGCAUCGACCGGCCGAGCAGAAGGACUCGUGAACUUGAGGAUCACCCAAGUGUCCUCGUUUGCUUGA [Mutated MS2 EX1.16] (Eterna round: R96, puzzle: Exclusion NG 1) | 139 | 134 | – | 125 | – | –
15 | AAUAACAGAGGAUAUACUAUUUUAUGUGUUUGUUAUUUUGAACAUGAGGAUCACCCAUGUAGAAGGCUGAUUAA [JMF 49] (puzzle: Exclusion 2) | – | – | 39.4 | – | – | –
16 | AGCUGUGGCCGAGGAUAUGACAUGAGGAUCACCCAUGUACAUAAUUAGGCCUGGUAACAGGCUCUUCAGAAGGCGGUCUCAGCA [Eli eng2 - 006] (Eterna round: R96, puzzle: Exclusion NG 2) | 7.27 | 11.8 | – | 6.45 | – | –
17 | AAAACUAACACGAAAGUGUUAGUAAAAUAAGCUUGUGGUACAUGAGGAUCACCCAUGUCCUCAUAAGCUCGUCUUAU [Mat - Sensor v3 - Turn-off var 2 - D44] (puzzle: Sensor v3, turn-off variant 2) | – | – | 67.7 | – | 25.1 | 24.5
18 | UUCCUCUCUUCUCCGUCUCACAUGAGGAUCACCCAUGUAACAUAGGAUAUGCUUGGUAUUUAAAUGCAGAAGGAUGUUAGUAUU [JR_ExcNG3_Sub081] (Eterna round: R96, puzzle: Exclusion NG 3) | 76.6 | 29.5 | – | 21.1 | – | –

Row | Sequence | apparent KD of MS2 coat protein (input ligand: FMN 200 uM) [nM] | apparent KD of MS2 coat protein (input ligand: none) [nM] | apparent KD of MS2 coat protein [1] [nM] | apparent KD of MS2 coat protein [2] [nM] | apparent KD of MS2 coat protein [3] [nM] | apparent KD of MS2 coat protein [4] [nM]
19 | GAUAAGGUAGGAUAUACGAAUAAAUAGGGUAGUAAUAAUACACAUGAGGAUCACCCAUGUAGAAGGACCAAUAG [Mat - Exclusion 2 - Mod of my Tesla design - D41] (puzzle: Exclusion 2) | – | – | 19.4 | – | 37.4 | 21.4
20 | CUCAUGUGAGGAUAUGUGAUCAACCUUCUGUAUAGAUGAUGACAGAAGGCACAUGAGGAUCACCCAUGUAGAUC [Ex4 - 3 - 18] (puzzle: Exclusion 4) | – | – | 46.7 | – | – | –
21 | AGUGCGUAUGUGAGGAUAUGCUGGUCCUUGGCUCGGCAGAAGGCACAUGAGGAUCACCCAUGUGGUGUCGUACC [salish99_Bmod_ex4_059] (puzzle: Brourd's mod of Exclusion 4) | – | – | 25 | – | – | –
22 | GCCUUACAUGAGGAUCACCCAUGUCAGGAUAUCGUUCAAGAUCUGACCUUAGAUCGAUCGAGAAGGGACUGGAU [Eternabot (L1) Solution 39] (Eterna round: R97, puzzle: Exclusion 1) | 27.4 | 17.2 | – | – | – | –
23 | UUAUUAAGUGUGAGGAUAUGCUGGUCCUUGGAUCAGCAGAAGGCACAUGAGGAUCACCCAUGUACUUUAUUUUA [JL bmx4 3.04] (puzzle: Brourd's mod of Exclusion 4) | – | – | 15.5 | – | – | –
24 | UCCAGGCGAGGAUAUACAAAGAUUUUUUCGUUUAGUCUCGAACAUGAGGAUCACCCAUGUAGAAGGUGCUUCAC [JR_Ex2_Sub011] (Eterna round: R97, puzzle: Exclusion 2) | 46.6 | 48.3 | – | – | – | –
25 | GCAAGAAUAGGAUAUACAACAUGCCAGCUUCUUUACAACGCACAUGAGGAUCACCCAUGUAGAAGGGUUCUCUA [Exclusion-2-#13] (Eterna round: R97, puzzle: Exclusion 2) | 209 | 261 | – | – | – | –
26 | GCAUCCAAUGUGAGGAUAUACCUCUGGAUACAGAGGUAGAAGGCACAUGAGGAUCACCCAUGUUACUAGGAUGC [Fiskers BMX 4 - 36] (puzzle: Brourd's mod of Exclusion 4) | – | – | 19.3 | – | – | –
27 | GUAAUUAUAUAGGAUAUCGAACUUAUUAUUUAACGAGAAGGAUGAACAUGAGGAUCACCCAUGUGGUAUCAUGG [JL-ex6-3.06] (puzzle: Exclusion 6) | – | – | 175 | – | – | –
28 | AUAUUAAGUGUGAGGAUAUGCUGGUCCUUGGAUCAGCAGAAGGCACAUGAGGAUCACCCAUGUAAUAUAUUUAA [Mat - Exclusion 4 - JL Mod - D48] (puzzle: Brourd's mod of Exclusion 4) | – | – | 87.2 | – | – | –
29 | CCUAGUUGGUAAGGAUAUCCUACAUUGUUCUGGCCCGGGCAUGCUACAUGAGGAUCACCCAUGUGGGAGAAGGUGCGUCAUCGC [Design 17] (Eterna round: R96, puzzle: Exclusion NG 2) | 80.4 | 71.7 | – | 53.3 | – | –
30 | UAUCUAUGAGGAUAUCAUAGUAGUUACAUGAGGAUCACCCAUGUCAUGACAGAACUGGGAUGAGAAGGCAUUCGUU [Eternabot (L2) Solution 73] (Eterna round: R97, puzzle: Exclusion 5) | 291 | 447 | – | – | – | –
31 | CUUUGGUCAGGAUAUGGUGGGCUGGUCGCGCGGCCGGGUGGCCAGAAGGGACAUGAGGAUCACCCAUGUACGGC [excls4-X] (Eterna round: R96, puzzle: Exclusion 4) | 106 | 84.3 | – | 53 | – | –
32 | GACUAAACACGAGGAUAUGCCUGGGAAGAACAGGCAGAAGGCGUGACAUGAGGAUCACCCAUGUAGCCGGGCUAUUCUCGUGUG [Orlaes] (Eterna round: R96, puzzle: Exclusion NG 1) | 35.4 | 29.3 | – | 20.8 | – | –
33 | UUUAAUUUUUUUUUUUUACAAGCUUUUUGCUCGUCUUAUACAUGAGGAUCACCCAUGUAAGUGGGAGGUAAAUUAUC [JMF 76] (puzzle: Sensor v3, turn-off variant 2) | – | – | 201 | – | 54.3 | 102
34 | AAACUGUGAGGAUAUGCACGGGCCCUCUUAAUAAAACCAAAACAUGAGGAUCACCCAUGUAGAAGGCACACAUA [EX2 A.24] (Eterna round: R97, puzzle: Exclusion 2) | 53.5 | 543 | – | – | – | –
35 | AAGUACCGUCACGAUAGUGAUGGUACAGCAAGCAAGUGAACAUGAGGAUCACCCAUGUCCUCAAUUGCUCGUCUUAU [Sensor 3 - 72] (puzzle: Sensor v3, turn-off variant 2) | – | – | 55.5 | – | 25 | 24.1
